Laboratory results reported in article PMC2191888.

Biological target: MCP-1 receptor(s) on THP-1 cells (human (endogenous in THP-1)) (UniProt P41597)
Assay: radioligand binding

## MCP-1 2-76 analogue (from UniProt P13500 25-99) (domain or fragment)
  Kd: 385 nM

## MCP-1 3-76 analogue (from UniProt P13500 26-99) (domain or fragment)
  Kd: 487 nM

## MCP-1 5-76 analogue (from UniProt P13500 28-99) (domain or fragment)
  Kd: 23 nM

## MCP-1 9-76 analogue (from UniProt P13500 32-99) (domain or fragment)
  IC50: 17 nM
  Kd: 8.3 nM

## MCP-1 10-76 analogue (from UniProt P13500 33-99) (domain or fragment)
  fold higher Kd than MCP-1: 13 fold

## MCP-1 11-76 analogue (from UniProt P13500 34-99) (domain or fragment)
  fold higher Kd than MCP-1: 48 fold

## MCP-1 (Ac) (from UniProt P13500 24-99) (ligand)
  Kd: 333 nM

## Monocyte chemoattractant protein 1 (MCP-1), synthetic, NH2-terminal pyroglutamate form (from UniProt P13500 24-99) (ligand)
  Kd: 2.8 nM
